# Assays:
# Assay in all cases: BLI, IgG
# [1] = target: T1, RSV postfusion F (postF), subtype A (respiratory syncytial virus, subtype A, UniProt P03420 26-513)
# T1 construct: also called F ΔFP; Postfusion subtype A
# [2] = target: RSV prefusion F (preF), subtype B (respiratory syncytial virus, subtype B)
# [3] = target: RSV prefusion F (preF), subtype A (respiratory syncytial virus, subtype A, UniProt P03420 26-513)
binder,measurement,setting,value
"ADI-14396 (antibody, V domains shown, also called Ab 63) VH: EVQLVESGGGVVQPGRSLRLSCAASGFTFSSYAMHWVRQAPGKGLEWVAVISYDGSNKYYADSVKGRFTISRDNSKNTLYLQMNSLRAEDTAVYYCARELRYFDWEYGGMDVWGQGTTVTVSS VL: EIVLTQSPSSLSASVGDRVTITCQASQDISNYLNWYQQKPGKAPKLLIYDASNLETGVPSRFSGSGSGTDFTFTISSLQPEDIATYYCQQYDNLPMYTFGQGTKLEIK",binding result,[1],no binding
same,Kd,[2],15.5 nM
same,binding result,[3],no binding
"ADI-14407 (antibody, V domains shown, also called Ab 73) VH: QVQLVQSGGGVVQPGRSLRLSCAASGFTFSSYGMHWVRQAPGKGLEWVAVIWFDGNNKEYADSVKGRFAISRDNSKNTLYLQMNSLRAEDTAVYYCARDLIPVTIFGVVNPYSYYGMDVWGQGTTVTVSS VL: EIVMTQSPSSLSASVGDRVTITCRASQSISTYLNWYQQKPGTAPKLLIYAASSLESGVPSRLSGSGSGTEFILTISSLQREDFATYYCQQSYSTPPTFGQGTKVEIK",Kd,[1],0.378 nM
same,Kd,[2],11.4 nM
same,Kd,[3],6.28 nM
"ADI-21041 (antibody, V domains shown) VH: EVQLVESGGVVVQPGGSLRLSCAASGFTFDDYTMHWVRQAPGKGLEWVSLISWVGDTTYYADSVKGRFTISRDNSKNSLYLQMNSLRTEDTALYYCAKGGYYDGSGYYYFDYWGQGTLVTVSS VL: DIRLTQSPSSLSASVGDRVTITCRASQSISNYLNWYQQKPGKAPKLLMYAASSLQSGVPSRFSGSGSGTDFTLTISSLQPEDFATYSCQQSYSTPYTFGQGTKVEIK",binding result,[1],no binding
same,Kd,[3],7.3 nM
"ADI-14576 (antibody, V domains shown) VH: QVQLVQSGAEVKKPGASVKVSCKASGYTFTSYGISWVRQAPGQGLEWMGWISAYNGNTNYAQKLQGRVTMTTDTSTSTAYMELRSLRSDDTAVYYCARDPPVIAAGDFQHWGQGTLVTVSS VL: DIVLTQSPLSLPVTLGQPASISCRSSQSLVHSDGNTYLNWFQQRPGQSPRRLIYKVSNRDSGVPDRFSGSGSGTDFTLKISRVEAEDVGVYYCMQGTHWPPDFGQGTRLEIK",binding result,[1],no binding
same,Kd,[2],19.3 nM
same,Kd,[3],6.97 nM
"ADI-14399 (antibody, V domains shown, also called Ab 65) VH: EVQLLESGPGLVKPSQTLSLTCAVSGGSINSGRYSWSWIRQPPGKGLEWIGYIYYSGTTYYNPSLESRVTISRDTSKNQFSLNLSSVTAADTAVYYCARTNSADSYASGSHYIRPQYFDFWGQGTLVTVSS VL: DIQLTQSPATLSLSPGERATLSCRASQSVSSYLAWYQQKPGQAPRLLIYGASNRATGIPARFSGSGSGTDFTLTISRLEPEDFAVYYCQQRSNWLTFGGGTKVEIK",binding result,[1],no binding
same,Kd,[2],0.365 nM
same,Kd,[3],0.189 nM
"ADI-14400 (antibody, V domains shown, also called Ab 66) VH: QVQLVQSGGGVVQPGRSLRLSSAASGFTFSSYAMHWVRQAPGKGLEWVAVISHDGSKYYADSVKGRFTISRDNSKSTLNLQMNSLRPEDTAVYYCARGGDVRLYDDSNGYHYDTYYFDYWGQGTLVTVSS VL: EIVLTQSPSSLSASVGDRVTITCRASQGIRNDLGWYQQKPGKAPKLLIYAASTLQSGVPSRFSGSGSGTDFTLTISSLQPEDFATYYCLQDYNYPLTFGGGTKVEIK",binding result,[1],no binding
same,Kd,[2],0.451 nM
same,Kd,[3],0.29 nM
"ADI-14401 (antibody, V domains shown, also called Ab 67) VH: QVQLVQSGGGLVKPGGSLRLSCAASGFTFSSYSMHWVRQAPGKGLEWVSSISASSSYLNYADSVKGRFTISRDNAKKSLYLQLNTLRADDTAVYYCAREDHDSGTYYLNWFDPWGQGTLVTVSS VL: QSVVTQPPSVSGAPGQRVTISCTGSSSNIGAGYDVHWYQQFPGTGPKLLIYGNSHRPSGVPDRFSGSKSGPSASLAITGLQAEDEADYYCQSYDSSLSGYVFGTGTKVTVL",binding result,[1],no binding
same,Kd,[2],2.17 nM
same,Kd,[3],1.19 nM

# Source: US20260258115A1 (MAPP BIOPHARMACEUTICAL, published 2026)
